Reference: paper PMC2995306 (Science (New York, N.Y.), 2009)
Where two headings read alike, the source gives them in different places.

Key:
crystal structure = biological target: the molecule itself; assay: crystal structure
[1] = biological target: the molecule itself

| Protein | stoichiometry N (crystal structure) | stoichiometry N [1] |
| --- | --- | --- |
| rhesus rotavirus (RRV, serotype G3) VP7 trimer, recombinant (natural protein, UniProt P12476 51-326, looked up, N-linked glycan at Asn69) QNYGINLPITGSMDTAYANSTQEETFLTSTLCLYYPTEAATEINDNSWKDTLSQLFLTKGWPTGSVYFKEYTDIASFSVDPQLYCDYNVVLMKYDATLQLDMSELADLILNEWLCNPMDITLYYYQQTDEANKWISMGSSCTIKVCPLNTQTLGIGCLTTDTATFEEVATAEKLVITDVVDGVNHKLDVTTATCTIRNCKKLGPRENVAVIQVGGSDVLDITADPTTAPQTERMMRINWKKWWQVFYTVVDYVNQIIQAMSKRSRSLNSAAFYYRI | 3 |  |
| disulfide-linked variant of the VP7 trimer (cysteines substituted for Thr276 and Gln305) (natural protein, rhesus rotavirus (RRV, serotype G3), UniProt P12476 51-326, looked up, intersubunit disulfide between the cysteines at 276 and 305) QNYGINLPITGSMDTAYANSTQEETFLTSTLCLYYPTEAATEINDNSWKDTLSQLFLTKGWPTGSVYFKEYTDIASFSVDPQLYCDYNVVLMKYDATLQLDMSELADLILNEWLCNPMDITLYYYQQTDEANKWISMGSSCTIKVCPLNTQTLGIGCLTTDTATFEEVATAEKLVITDVVDGVNHKLDVTTATCTIRNCKKLGPRENVAVIQVGGSDVLDITADPCTAPQTERMMRINWKKWWQVFYTVVDYVNCIIQAMSKRSRSLNSAAFYYRI |  | 3 |
